Experimental data from patent US10947270B2, “Targeted prodrug cytosine deaminase fusion carrier and application thereof” (National Yang-Ming University, priority 2015, dated 2021).

Tests used:
[1] = Enzyme kinetic analysis of yCD series proteins after DTPA modification, marking and purification; format: biochemical
Text: The enzyme activity of yCD is not affected by DTPA modification.
FIGS. 24A-24B show the kinetic curve of yCD series protein modified, labeled and purified by DTPA. The enzyme activity of the two proteins is not affected by the labeling conditions. After adding EDTA with a 10-fold molar excess of protein, and it is competitively purified, In-DTPA-yCD compared with the original enzyme activity.
The curve and enzyme kinetic parameters (see FIG. 18 and Table 13) are fitted by the […] protein enzyme kinetics through the Michaelis-Menten formula in the Graph prism program.
Before the protein is labeled by radioisotope, its enzyme function must be determined, and based on the original enzyme function, it should be examined whether it will be affected during the radioactive marking process. The curve and enzyme kinetic parameters of protein are fitted by the Michaelis-Menten formula in the Graph prism program. […] Whether the yCD and RGD4C-yCD protein detected by the same method will be affected under the conditions of DTPA modification, marking and purification. […] After the completion of the radioactive metal mark, it is necessary to add EDTA of 10-fold protein Moire number and react at room temperature for 1 hour to compete for the radioactive metal isotope indium which is not chelated on DTPA. The EDTA in this step also has the chance to chelate the metal zinc ion of the enzyme catalytic center, the enzyme activity is impaired, so it is necessary to analyze the enzyme activity of In-DTPA-yCD and In-RGD4C-yCD protein after competition with EDTA. After the EDTA competitive reaction is completed, the enzyme kinetics analysis can be carried out by reducing the EDTA molecule weight through membrane centrifugation method and by replacing the solution with pH 7.0. […] The curve and receptor binding ability parameters of the protein and integrin αvβ3 are fitted under the conditions of DTPA modification, marking and purification by the One site-Specific binding formula in the Graph prism program (see FIG. 25 and Table 18). […] Although the two proteins after marking are greatly affected by the enzyme activity, they still have good binding ability to the integrin αvβ3 receptor. In consideration of the indispensability of EDTA for radiochemical purity, it retains a considerable amount of enzyme activity. In addition, the effect of integrin αvβ3 receptor binding ability is minimal, in combination of cell uptake, biodistribution and angiography experiment, focusing on the evaluation of target results, and the subsequent biological experiment is still carried out by the marking and purification conditions.

HUVEC and U87MG cells = assay: Fluorescence microscopy of binding and distribution of yCD series fusion proteins; format: cell-based, human; conditions: 500 nM protein, 4° C., 2 hours
Description: (FIG. 8A) or 37° C. […] (FIG. 8C) or 37° C. (FIG. 8D) for 2 hours, and then the fluorescent staining is performed for the cells, and the confocal fluorescence microscope is used to observe the distribution of protein in cells. (Green signal: β3 integrin; red signal: anti-His6-tag (also represents the signal of the fusion protein); blue signal: Hoechst 33342 cell nuclear stain) (Calibration scale: 20 μm).
HUVEC and U87MG cells are co-cultured with culture medium containing 500 nM RGD4C-yCD and RGD4C-yCD/UPRT protein at 4° C. and 37° C. for 2 hours, then the cells are stained with fluorescence, and the distribution in the cell is observed by conjugated fluorescence microscopy.

[2] = test system: HUVEC, U87MG and MCF-7 cells; assay: Specific binding assay of yCD series recombinant protein and cell, statement for the three cells; format: cell-based, human
Description: FIG. 5A, FIG. 5B, and FIG. 5C are respectively represented HUVEC cells, U87MG cells, MCF-7 cells seeded in 96-well plates for 24 hours, and then RGD4C-yCD, yCD, RGD4C-yCD/UPRT and yCD/UPRT with different concentrations are added for cells binding assay. After reacted with anti-His-HRP antibody and TMB substrate, ELISA reader (OD450 nm) is used to detect the amount of recombinant protein bound to the cells, and the binding curve is drawn. The nonlinear curve of the prism software is used to make a diagram and calculate the dissociation constant (Kd).
The anti-His6-Tag-HRP antibody and TMB show the color reagent to detect the amount of recombinant protein bound to the cell, then the dissociation constant Kd value of the recombinant protein and the integrin αvβ3 receptor is calculated and a binding curve is drawn. […] The cell binding ability of RGD4C-yCD for HUVEC and U87MG are about 7.7 folds and 6.8 folds higher than MCF-7 respectively. The cell binding ability of RGD4C-yCD/UPRT for HUVEC and U87MG are about 6.9 folds and 5.8 folds higher than MCF-7 respectively. […] It is shown that RGD4C-yCD and RGD4C-yCD/UPRT are specially bound with integrin αvβ3 through RGD4C sequence.

[3] = Enzyme kinetic analysis of EcCD series fusion proteins, substrate 5-FC; format: biochemical
Text: FIGS. 11A-11D show the activity and kinetics analysis of EcCD series fusion protein enzymes, and the EcCD series proteins are combined with 5-FC at different concentrations for reaction. Respectively calculate the 5-FU formation reaction rate shown in FIG. 11A, 5-FC consumption reaction rate shown in FIG. 10B, uracil formation reaction rate shown in FIG. 10C and cytosine consumption reaction rate shown in FIG. 10D, substitute Michaelis-Menten formula, and calculate the base mass (Kcat) and Km value catalyzed by each mol enzyme in unit time.

integrin αvβ3 receptor = integrin αvβ3 receptor (Homo sapiens, UniProt P05106+P06756); assay: ELISA binding ability of DTPA modified and In-labeled yCD series protein to integrin αvβ3 receptor; conditions: before and after modification, marking, purification
Chain of integrin αvβ3 receptor (P06756 31-889 limits assumed): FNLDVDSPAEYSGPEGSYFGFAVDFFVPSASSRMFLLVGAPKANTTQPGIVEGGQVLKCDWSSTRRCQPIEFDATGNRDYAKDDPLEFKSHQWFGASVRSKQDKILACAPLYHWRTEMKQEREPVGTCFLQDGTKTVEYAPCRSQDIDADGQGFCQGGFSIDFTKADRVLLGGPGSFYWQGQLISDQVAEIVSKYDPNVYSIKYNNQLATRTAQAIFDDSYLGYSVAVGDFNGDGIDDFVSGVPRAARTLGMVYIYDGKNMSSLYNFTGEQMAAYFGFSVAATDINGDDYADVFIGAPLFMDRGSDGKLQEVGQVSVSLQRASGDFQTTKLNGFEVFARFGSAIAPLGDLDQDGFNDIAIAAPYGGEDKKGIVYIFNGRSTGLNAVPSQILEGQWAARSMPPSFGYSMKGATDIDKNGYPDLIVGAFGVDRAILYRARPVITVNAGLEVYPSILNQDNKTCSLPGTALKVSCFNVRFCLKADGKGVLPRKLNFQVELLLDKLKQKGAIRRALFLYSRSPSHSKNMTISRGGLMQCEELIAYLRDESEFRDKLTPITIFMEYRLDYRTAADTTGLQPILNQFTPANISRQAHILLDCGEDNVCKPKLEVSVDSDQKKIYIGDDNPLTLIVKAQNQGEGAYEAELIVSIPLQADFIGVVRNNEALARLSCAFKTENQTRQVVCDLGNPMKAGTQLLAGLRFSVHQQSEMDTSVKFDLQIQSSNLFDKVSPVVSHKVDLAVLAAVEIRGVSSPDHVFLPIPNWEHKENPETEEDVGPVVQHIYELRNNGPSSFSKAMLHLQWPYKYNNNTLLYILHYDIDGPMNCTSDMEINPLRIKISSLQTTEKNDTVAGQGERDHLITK
Chain of integrin αvβ3 receptor (P06756 891-1048 partner limits assumed): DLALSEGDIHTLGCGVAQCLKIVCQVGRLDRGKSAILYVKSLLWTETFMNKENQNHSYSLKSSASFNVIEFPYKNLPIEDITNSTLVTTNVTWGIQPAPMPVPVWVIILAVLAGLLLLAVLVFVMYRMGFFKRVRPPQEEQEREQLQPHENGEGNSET
Chain of integrin αvβ3 receptor (P05106 27-788): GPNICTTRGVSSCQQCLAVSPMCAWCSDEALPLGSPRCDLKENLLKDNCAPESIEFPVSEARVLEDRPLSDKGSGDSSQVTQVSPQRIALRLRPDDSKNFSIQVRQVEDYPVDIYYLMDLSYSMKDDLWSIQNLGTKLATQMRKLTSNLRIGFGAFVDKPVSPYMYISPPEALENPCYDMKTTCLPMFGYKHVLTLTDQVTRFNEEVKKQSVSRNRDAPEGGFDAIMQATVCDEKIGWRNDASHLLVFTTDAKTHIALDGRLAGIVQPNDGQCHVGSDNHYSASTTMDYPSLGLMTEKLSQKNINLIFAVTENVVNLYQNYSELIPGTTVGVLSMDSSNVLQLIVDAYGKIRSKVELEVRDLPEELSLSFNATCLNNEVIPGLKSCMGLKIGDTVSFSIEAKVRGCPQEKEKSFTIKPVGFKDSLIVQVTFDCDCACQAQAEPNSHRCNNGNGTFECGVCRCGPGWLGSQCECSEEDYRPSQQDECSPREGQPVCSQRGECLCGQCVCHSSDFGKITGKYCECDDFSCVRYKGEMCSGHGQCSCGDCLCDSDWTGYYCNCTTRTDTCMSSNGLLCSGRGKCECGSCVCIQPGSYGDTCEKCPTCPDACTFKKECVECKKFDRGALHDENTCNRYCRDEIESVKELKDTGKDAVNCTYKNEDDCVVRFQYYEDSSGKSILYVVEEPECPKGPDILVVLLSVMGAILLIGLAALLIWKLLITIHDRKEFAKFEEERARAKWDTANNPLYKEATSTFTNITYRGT
Text: The curve and receptor binding ability parameters (see FIG. 19 and Table 14) are fitted by the binding ability of DTPA-modified protein and integrin αvβ3 receptor through the One site-Specific binding formula in the Graph prism program.
Before the protein is labeled by radioisotope, its enzyme function must be determined, and based on the original enzyme function, it should be examined whether it will be affected during the radioactive marking process. The curve and enzyme kinetic parameters of protein are fitted by the Michaelis-Menten formula in the Graph prism program. […] Whether the yCD and RGD4C-yCD protein detected by the same method will be affected under the conditions of DTPA modification, marking and purification. […] After the completion of the radioactive metal mark, it is necessary to add EDTA of 10-fold protein Moire number and react at room temperature for 1 hour to compete for the radioactive metal isotope indium which is not chelated on DTPA. The EDTA in this step also has the chance to chelate the metal zinc ion of the enzyme catalytic center, the enzyme activity is impaired, so it is necessary to analyze the enzyme activity of In-DTPA-yCD and In-RGD4C-yCD protein after competition with EDTA. […]

binding with integrin αvβ3 receptor (integrin αvβ3 receptor): can not be bound
B1: yCD: yeast cytosine deaminase (yCD) (SEQ ID NO: 1), recombinant protein without target molecule (protein)
chain: MVVTGGMASKWDQKGMDIAYEEAALGYKEGGVPIGGCLINNKDGSVLGRGHNMRFQKGSATLHGEISTLENCGRLEGKVYKDTTLYTTLSPCDMCTGAIIMYGIPRCVVGENVNFKSKGEKYLQTRGHEVVVVDDERCKKIMKQFIDERPQDWFEDIGELEHHHHHH
modifications: yCD
Km [1]: 840 ± 71.9 µM
Vmax [1]: 264.1 ± 8.256 µM/min
binding and distribution in cells (HUVEC and U87MG cells): can not be effectively bound
binding to the three cells [2]: weak binding
Kcat ([3]; 5-FC consumption (Table 5)): 48.5 ± 1.3 s⁻¹
Km ([3]; 5-FC consumption (Table 5)): 1000 ± 100 µM
Kcat ([3]; 5-FU generation): 47.2 ± 0.9 s⁻¹
Km ([3]; 5-FU generation): 1000 ± 100 µM
